These results are taken from patent US20250388597A1, “BIFUNCTIONAL PHOTOCROSSLINKING PROBES FOR COVALENT CAPTURE OF PROTEIN-NUCLEIC ACID COMPLEXES IN CELLS” (UNIVERSITY OF SOUTHERN CALIFORNIA, priority 2022, published 2025).

Data set [1] has as its target T1, MEF2A DNA binding domain (Homo sapiens, UniProt Q02078 Q02078:2-95). Description: 4AMT-SDAD + UV365 photocrosslinking, reversed by TCEP. The note with it: chain copies: 2; label: 5'6-FAM.
Data set [2] has as its target T2, NFAT1 DNA binding domain (Homo sapiens, UniProt Q13469 Q13469:399-676).
T2 sequence: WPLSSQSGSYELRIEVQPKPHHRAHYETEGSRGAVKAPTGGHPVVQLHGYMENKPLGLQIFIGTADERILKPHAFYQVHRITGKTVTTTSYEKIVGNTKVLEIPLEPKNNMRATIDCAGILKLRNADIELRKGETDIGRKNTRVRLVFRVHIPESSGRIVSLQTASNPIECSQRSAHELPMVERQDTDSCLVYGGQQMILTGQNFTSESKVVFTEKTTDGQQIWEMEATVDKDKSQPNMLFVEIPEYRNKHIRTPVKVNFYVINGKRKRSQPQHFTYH
Description: SPB-AAD 100 uM + UV365 photocrosslinking, SDS-PAGE. The procedure:
The UV illumination (as indicated by a positive sign) was carried out using a LED Chip (21.4 mm×21.4 mm, 365-370 nm, 30 Watt, sample distance 2 cm, exposure time 2-15 min at 4 degree C., here the exposure time is 15 min). Half of the binding reaction (7.5 μl) was run on a 10% PAGE 0.5×TBE gel and visualized by Cy5 fluorescence on DNA. The small amount of single stranded DNA is due to incomplete annealing. The higher smearing bands are most likely non-specific protein complexes. Neither of these experimental imperfections affected the main conclusion of this experiment because the double stranded-DNA bands and the specific NFAT-DNA complex bands (the middle sharp bands) are well defined and can be monitored without the interference of the other bands.
(§1) FIG. 12D depicts the other half of binding reaction from the above experiments (FIG. 12C) were added SDS loading dye (2% SDS), boil for 10 min, and run on SDS gel (4-15% gradient gel). The gel was visualized by Cy5 fluorescence for DNA.
FIG. 12E depicts further characterization of BFPX crosslinking of NFAT1/DNA complexes using different DNA substrates and staining techniques. […] The reactions were then analyzed by SDS PAGE under denaturing condition as described in FIG. 12D. […]

Data set [3] deals with p53 DNA binding domain (Homo sapiens, UniProt P04637 P04637:102-292). Description: SPB-AAD, SPB-PEG4-AAD or SPB-Spermidine-AD + UV365 photocrosslinking, SDS-PAGE. As to conditions: chain copies: 4 stated; label: 5'-Cy5.
Data set [4] concerns the target T2, NFAT1 DNA binding domain. Description: EMSA; 20 mM Hepes pH 7.6, 150 mM NaCl, 1 mM DTT, 12% glycerol, RT; formaldehyde diminished binding, BFPX probes did not; also photocrosslinked. As to conditions: label: 5'-Cy5 (or 5'6-FAM). The procedure: FIG. 12C depicts Native EMSA assay of the effect of Formaldehyde (FA), BFPX probe (SPB-AAD, SPB-PEG4-AAD, and SPB-Spermidine-AD) at various concentrations, and UVA (365 nm) on the DNA binding by NFAT1. The binding reactions were performed in a buffer of 20 mM Hepes pH 7.6, 150 mM NaCl, 1 mM DTT, 12% glycerol. Typically protein and DNA are mixed to bind at room temperature for 30 min, followed by addition of BFPX probes for an additional 15 min and then UV illumination. In the case of FA treatment, the reaction time is 10 min at room temperature and then quenched by 250 mM glycine. […] Half of the binding reaction (7.5 μl) was run on a 10% PAGE 0.5×TBE gel and visualized by Cy5 fluorescence on DNA. […] Neither of these experimental imperfections affected the main conclusion of this experiment because the double stranded-DNA bands and the specific NFAT-DNA complex bands (the middle sharp bands) are well defined and can be monitored without the interference of the other bands.
as §1

The target of data set [5] is T1, MEF2A DNA binding domain. Description: SPB-AAD 100 uM + UV365 photocrosslinking, SDS-PAGE; no crosslink without probe. The note with it: chain copies: 2; label: 5'6-FAM.
Data set [6] concerns the target Nkx2.5 DNA binding domain (homeodomain) (Homo sapiens, UniProt P52952 P52952:138-197). Kind of data set: SPB-AAD, SPB-PEG4-AAD or SPB-Spermidine-AD + UV365 photocrosslinking, SDS-PAGE; none with formaldehyde or UV alone. The note with it: label: 5'6-FAM.

T1 sequence (Q02078 2-95, one chain of several): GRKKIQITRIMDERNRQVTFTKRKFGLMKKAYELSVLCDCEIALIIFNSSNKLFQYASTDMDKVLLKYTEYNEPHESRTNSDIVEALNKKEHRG
p53 DNA binding domain, sequence (P04637 102-292, one chain of several): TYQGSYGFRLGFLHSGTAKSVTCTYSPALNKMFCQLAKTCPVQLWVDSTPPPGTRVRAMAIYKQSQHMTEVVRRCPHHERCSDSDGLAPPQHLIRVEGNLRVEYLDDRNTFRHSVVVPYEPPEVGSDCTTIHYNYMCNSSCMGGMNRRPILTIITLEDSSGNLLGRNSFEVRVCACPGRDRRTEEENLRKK
Nkx2.5 DNA binding domain (homeodomain), sequence (P52952 138-197, one chain of several): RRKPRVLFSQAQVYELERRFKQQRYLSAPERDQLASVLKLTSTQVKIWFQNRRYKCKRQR

B1: MEF2 site 16-mer (only the core site printed) (dsDNA)
DNA 1: CTATAAATAG
DNA 2: CTATTTATAG
Consider B1, for which the binding result in data set [1] is on record as “binds”.

B2: c2 NFAT 16-mer (dsDNA)
DNA 1: GTAGAGGAATTTCCTA
DNA 2: TAGGAAATTCCTCTAC
Turning to B2, the binding result in data set [2] is reported as “binds”.

B3: p53 tetramer site 37-mer (dsDNA)
DNA 1: GCTAGCGTAGCAGGCATGCCTAGGCATGCCTGCTACG
DNA 2: CGTAGCAGGCATGCCTAGGCATGCCTGCTACGCTAGC
Turning to B3, the binding result in data set [3] is “binds”.

B4: ARRE2 27-mer (dsDNA)
DNA 1: CCATAGAGGAAAATTTGTTTCATACAG
DNA 2: CTGTATGAAACAAATTTTCCTCTATGG
B4: the binding result in data set [4] is recorded as “binds”.

B5: c1 NFAT 21-mer (dsDNA)
DNA 1: TTCCACAGAGGAAAATTTGTT
DNA 2: AACAAATTTTCCTCTGTGGAA
Take B5: the binding result in data set [2] was “binds”.

B6: MEF2 consensus site DNA (44-mer; only the core site printed) (dsDNA)
DNA 1: CTATAAATAG
DNA 2: CTATTTATAG
Regarding B6, the binding result in data set [5] is reported as “binds”.

B7: Nkx2.5 site 19-mer (dsDNA)
DNA 1: ACTATTTTAAGAACGTGCT
DNA 2: AGCACGTTCTTAAAATAGT
Consider B7, for which, in data set [6], the binding result was “binds”.
